The supplement of paper PMC12855868

B1: library; numbered along this chain (parent)
chain: MAAAGGARLLRAASAVLGGPAGRWLHHAGSRAGSSGLLRNRGPGGSAEASRSLSVSARARSSSEDKITVHFINRDGETLTTKGKVGDSLLDVVVENNLDIDGFGACEGTLACSTCHLIFEDHIYEKLDAITDEENDMLDLAYGLTDRSRLGCQICLTKSMDNMTVRVPETVADARQSIDVGKTS

Variants of: B1
Experiment: scaled log2 fold change in cell abundance, elesclomol vs control (0 = silent mean, 1 = nonsense mean) (scaled log2 ratio); higher = higher viability under elesclomol (loss of FDX1 cuproptosis function)
Details: glucose 10 mM
Protocol: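 Deep mutational scan of full-length human FDX1: a pooled saturation-mutagenesis ORF library (every residue 2-184 mutated to all 19 amino acids plus stop, and silent codons where available) was expressed by lentivirus in FDX1-knockout ABC1 (14 days) or HEK293T (11 days) cells grown with elesclomol (ES) or DMSO control. Variant abundance came from ORF sequencing. The log2 fold change (ES vs control, mean of duplicates) was centred on the silent-variant mean (0) and scaled to the nonsense-variant mean (1). Higher values mean greater viability under ES, i.e. loss of FDX1 function in cuproptosis.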

[1] = with ABC1 FDX1 KO, elesclomol 5 nM, 14 days
[2] = with HEK293T FDX1 KO, elesclomol 40 nM, 11 days
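Further: variant abundance is its share of total variant reads in each endpoint sample, from next-generation sequencing of the integrated ORF PCR-amplified out of genomic DNA.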

| Variant | scaled log2 fold change [1] | scaled log2 fold change [2] |
| --- | --- | --- |
| V85G | 0.265 | 0.288 |
| V85H | -0.166 | -0.307 |
| V85I | -0.161 | -0.597 |
| V85K | 0.192 | -0.177 |
| V85L | -0.101 | 0.47 |
| V85M | 0.00542 | -0.0343 |
| V85N | -0.0121 | 0.0182 |
| V85P | -0.0817 | -1.46 |
| V85Q | 0.0746 | -0.0938 |
| V85R | 0.266 | -0.792 |
| V85S | 0.131 | -0.121 |
| V85T | -0.279 | -0.55 |
| V85W | 0.119 | 0.889 |
| V85Y | -0.534 | -0.0166 |
| G86A | 0.349 | 0.0692 |
| G86C | 0.175 | 1.4 |
| G86D | 0.248 | -0.689 |
| G86E | 0.115 | 0.852 |
| G86F | 0.287 | -0.571 |
| G86H | 0.239 | 0.453 |
| G86I | 0.576 | 0.0646 |
| G86K | 0.242 | -0.0346 |
| G86L | 0.171 | 0.00376 |
| G86M | -0.125 | -0.231 |
| G86N | 0.233 | – |

| Variant | scaled log2 fold change [1] | scaled log2 fold change [2] |
| --- | --- | --- |
| G86P | 0.208 | 0.284 |
| G86Q | -0.2 | 0.928 |
| G86R | 0.269 | -0.218 |
| G86S | 0.0131 | 0.985 |
| G86T | 0.117 | -0.144 |
| G86V | 0.654 | 0.478 |
| G86W | 0.246 | – |
| G86Y | 0.0464 | 0.586 |
| D87A | 0.0673 | – |
| D87C | -0.824 | -0.252 |
| D87E | -0.224 | 0.0766 |
| D87F | 0.195 | -0.393 |
| D87G | -0.161 | -0.147 |
| D87H | -0.183 | 0.121 |
| D87I | -0.274 | -0.421 |
| D87K | 0.34 | 0.127 |
| D87L | -0.301 | -0.549 |
| D87M | 0.055 | -0.441 |
| D87N | -0.0848 | – |
| D87P | 0.439 | -0.0143 |
| D87Q | -0.303 | 0.511 |
| D87R | -0.147 | – |
| D87S | -0.493 | – |
| D87T | -0.14 | – |
| D87V | -0.164 | -0.704 |

| Variant | scaled log2 fold change [1] | scaled log2 fold change [2] |
| --- | --- | --- |
| D87W | -0.221 | -0.509 |
| D87Y | -0.31 | -0.0378 |
| S88A | 0.0293 | 0.31 |
| S88C | 0.057 | 1.32 |
| S88E | 0.289 | 0.37 |
| S88F | 0.301 | – |
| S88G | 0.17 | 0.309 |
| S88I | 0.199 | – |
| S88L | 0.0552 | – |
| S88N | 0.582 | – |
| S88Q | 0.191 | -0.766 |
| S88T | -0.996 | -0.234 |
| S88V | -0.223 | 0.0665 |
| S88W | 0.356 | -0.287 |
| L89A | -0.0423 | – |
| L89C | -0.261 | 0.257 |
| L89D | 1.11 | 1.26 |
| L89E | 0.919 | 0.768 |
| L89F | 0.706 | 0.454 |
| L89G | 0.853 | 0.301 |
| L89H | 1.34 | 0.109 |
| L89K | 1.05 | 1.47 |
| L89M | 0.256 | 0.404 |
| L89N | 1.2 | 0.434 |
| L89P | 0.89 | 0.172 |

| Variant | scaled log2 fold change [1] | scaled log2 fold change [2] |
| --- | --- | --- |
| L89Q | 1.64 | 0.508 |
| L89R | 1.16 | 0.853 |
| L89S | 1.06 | 0.924 |
| L89T | -0.121 | -0.104 |
| L89V | 0.313 | -0.151 |
| L89W | 0.552 | 1.33 |
| L89Y | 0.534 | 0.223 |
| L90A | -0.423 | – |
| L90C | 0.079 | 0.931 |
| L90D | 0.478 | 0.245 |
| L90E | 0.187 | 0.205 |
| L90F | 0.00898 | -0.179 |
| L90G | 0.46 | 0.288 |
| L90H | -0.379 | 1.81 |
| L90I | -0.268 | 0.924 |
| L90K | 0.0261 | – |
| L90M | -0.268 | -0.239 |
| L90N | 0.293 | -0.049 |
| L90P | 0.597 | 0.277 |
| L90Q | -0.132 | -0.0146 |
| L90R | -0.127 | -0.461 |
| L90S | -1 | 0.27 |
| L90T | -0.871 | -0.404 |
| L90V | -0.0886 | -0.208 |
| L90W | -0.148 | 0.134 |

| Variant | scaled log2 fold change [1] | scaled log2 fold change [2] |
| --- | --- | --- |
| L90Y | -0.103 | – |
| D91C | 0.188 | 0.246 |
| D91E | -0.0305 | 1.04 |
| D91F | 0.29 | -0.219 |
| D91G | 0.216 | 0.254 |
| D91H | -0.00925 | -0.865 |
| D91I | 0.418 | -0.331 |
| D91K | -0.39 | -0.0722 |
| D91L | 0.217 | -0.127 |
| D91M | -0.119 | -1.37 |
| D91N | 0.109 | -0.0567 |
| D91P | 0.307 | 0.179 |
| D91Q | -1.31 | -0.476 |
| D91R | -0.658 | -0.752 |
| D91S | -0.972 | 0.774 |
| D91T | 0.169 | – |
| D91V | -0.017 | 0.747 |
| D91W | 0.0916 | -0.265 |
| D91Y | -0.0508 | 0.728 |
| V92A | 0.494 | -0.354 |
| V92C | 0.195 | -0.64 |
